# Source: publication PMC3677566 (Biochemistry, 2011)
# Target: Ubc9 (human, UniProt P63279 1-158)
# Assay: pull-down
# Ubc9, sequence (P63279 whole entry): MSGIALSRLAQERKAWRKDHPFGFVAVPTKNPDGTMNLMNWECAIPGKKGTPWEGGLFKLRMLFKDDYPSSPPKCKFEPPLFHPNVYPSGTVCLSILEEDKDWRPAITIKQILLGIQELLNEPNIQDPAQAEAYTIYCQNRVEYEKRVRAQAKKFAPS
row,binding result,Binder
1,binds,"IR1-M domain (internal repeat 1 and M) of RanBP2 (domain or fragment, UniProt P49792 2629-2710, looked up) DDDVLIVYELTPTAEQKALATKLKLPPTFFCYKNRPDYVSEEEEDDEDFETAVKKLNGKLYLDGSEKCRPLEENTADNEKEC"
2,binds,"IR1-M_ΔSIM domain of RanBP2 (domain or fragment, UniProt P49792 2637-2710, looked up) ELTPTAEQKALATKLKLPPTFFCYKNRPDYVSEEEEDDEDFETAVKKLNGKLYLDGSEKCRPLEENTADNEKEC"
